Measured values taken from patent publication EP1728864A1 (dated 2006).
Values belong to the binder of their own block, whether it stands above or below them.

Legend:
[1] = biological target: T1, human gp39 (cell-expressed, full length) (human, UniProt P29965 1-261); test: cell-based or functional assay
T1 sequence (looked up): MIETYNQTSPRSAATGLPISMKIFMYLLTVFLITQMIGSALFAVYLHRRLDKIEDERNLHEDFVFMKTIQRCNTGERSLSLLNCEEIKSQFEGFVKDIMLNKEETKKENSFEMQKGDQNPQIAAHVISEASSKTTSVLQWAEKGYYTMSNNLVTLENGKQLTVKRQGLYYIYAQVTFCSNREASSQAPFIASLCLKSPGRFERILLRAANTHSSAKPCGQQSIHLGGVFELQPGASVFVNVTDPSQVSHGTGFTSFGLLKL

[2] = biological target: T1, human gp39 (cell-expressed, full length); test: saturation binding of iodinated protein to BMS-10 Jurkat cells
[3] = biological target: sgp39 mutant K143/A (murine; human); test: ELISA on captured mutant sgp39
[4] = biological target: sgp39 mutant S131/A-T135/A (murine; human); test: ELISA on captured mutant sgp39
[5] = biological target: sgp39 mutant F201/A-E202/A (murine; human); test: ELISA on captured mutant sgp39
[6] = biological target: sgp39 mutant E129/A (murine; human); test: ELISA on captured mutant sgp39
[7] = biological target: sgp39 mutant Y145/A (murine; human); test: ELISA on captured mutant sgp39
[8] = biological target: sgp39 mutant N180/A (murine; human); test: ELISA on captured mutant sgp39
[9] = biological target: T1, human gp39 (cell-expressed, full length); test: saturation binding of radiolabeled protein to gp39+ Jurkat cells

IgG synthesis, % of medium only control, 0.94 x10^12 binding sites/ml [1]: 21%
IgG synthesis, % of medium only control, 1.88 x10^12 binding sites/ml [1]: 10%
IgG synthesis, % of medium only control, 3.76 x10^12 binding sites/ml [1]: 12%
IgG synthesis, % of medium only control, 7.53 x10^12 binding sites/ml [1]: 14%
IgM synthesis, % of medium only control, 0.94 x10^12 binding sites/ml [1]: 19%
IgM synthesis, % of medium only control, 1.88 x10^12 binding sites/ml [1]: 12%
IgM synthesis, % of medium only control, 3.76 x10^12 binding sites/ml [1]: 12%
IgM synthesis, % of medium only control, 7.53 x10^12 binding sites/ml [1]: 12%
Kd [2]: 1.6 nM
B1: 106 sFv-Ig (scFv)
scFv: DIQMTQSPASLSASVGETVTITCRASETIYSYLAWYQQKQGRSPQLLVYNAKTLAEGVPSRFSGSGSGTQFSLKINSLQPEDFGSYYCQHHYNTPLTFGTGTKLELKRGGGGSGGGGSGGGGSEVKLVESGGGLVKPGGSLKLSCTTSGFTFNNYAMSWVRQTPEKRLEWVASISSGDSTYYFDSVRGRFTISRDNARNILYLQMSSLRSEDTAMYYCARHYDYDSYAMDYWGQGTSVTVS
notes: VL-linker-VH-human Ig, monomeric; L6 V kappa leader used for secretion; not shown: hinge-CH2-CH3 of human IgG1

IgG synthesis, % of medium only control, 0.94 x10^12 binding sites/ml [1]: 60%
IgG synthesis, % of medium only control, 1.88 x10^12 binding sites/ml [1]: 11%
IgG synthesis, % of medium only control, 3.76 x10^12 binding sites/ml [1]: 17%
IgG synthesis, % of medium only control, 7.53 x10^12 binding sites/ml [1]: 12%
IgM synthesis, % of medium only control, 0.94 x10^12 binding sites/ml [1]: 64%
IgM synthesis, % of medium only control, 1.88 x10^12 binding sites/ml [1]: 29%
IgM synthesis, % of medium only control, 3.76 x10^12 binding sites/ml [1]: 24%
IgM synthesis, % of medium only control, 7.53 x10^12 binding sites/ml [1]: 14%
% of binding to wild-type sgp39 [3]: 5%
% of binding to wild-type sgp39 [4]: 89%
% of binding to wild-type sgp39 [5]: 112%
% of binding to wild-type sgp39 [6]: 70%
% of binding to wild-type sgp39 [7]: 106%
% of binding to wild-type sgp39 [8]: 93%
B2: 39-1.7 (antibody, mouse IgG2b, V domains shown)
VH: EVQLQQSGPELVKPGASVKMSCKASGYTFTDYYMKWVKQSHGKSLEWIGNINPNNGDTFFNQKFEGKATLTVDKSSSAAYMQLNSLTSEDSAVKKCARGPGTNYFDYWGQGTTLTVSS
VL: DIVLTQSPVSLAVSLGQRVTISCRASQSVSSSTNSYMHWYQQKPGQPPKLLIKYASNLESGVPARFSGSGSGTDFTLNIHPVEEEDTATYYCQHSWEIPFTFGSGTKLEIRR

IgG synthesis, % of medium only control, 0.94 x10^12 binding sites/ml [1]: 37%
IgG synthesis, % of medium only control, 1.88 x10^12 binding sites/ml [1]: 26%
IgG synthesis, % of medium only control, 3.76 x10^12 binding sites/ml [1]: 24%
IgG synthesis, % of medium only control, 7.53 x10^12 binding sites/ml [1]: 11%
IgM synthesis, % of medium only control, 0.94 x10^12 binding sites/ml [1]: 34%
IgM synthesis, % of medium only control, 1.88 x10^12 binding sites/ml [1]: 27%
IgM synthesis, % of medium only control, 3.76 x10^12 binding sites/ml [1]: 19%
IgM synthesis, % of medium only control, 7.53 x10^12 binding sites/ml [1]: 25%
% of binding to wild-type sgp39 [3]: 52%
% of binding to wild-type sgp39 [4]: 113%
% of binding to wild-type sgp39 [5]: 9%
% of binding to wild-type sgp39 [6]: 130%
% of binding to wild-type sgp39 [7]: 124%
% of binding to wild-type sgp39 [8]: 144%
Kd [2]: 0.4 nM
fold greater affinity than 106 sFv-Ig [9]: ~3 fold
B3: 39-1.106 (antibody, mouse IgG1, V domains shown)
VH: EVKLVESGGGLVKPGGSLKLSCTTSGFTFNNYAMSWVRQTPEKRLEWVASISSGDSTYYFDSVRGRFTISRDNARNILYLQMSSLRSEDTAMYYCARHYDYDSYAMDYWGQGTSVTVS
VL: DIQMTQSPASLSASVGETVTITCRASETIYSYLAWYQQKQGRSPQLLVYNAKTLAEGVPSRFSGSGSGTQFSLKINSLQPEDFGSYYCQHHYNTPLTFGTGTKLELKR
notes: murine IgG1, kappa
